Molecular target: T1, mouse DLK1 (moDLK1) (mouse, UniProt Q09163)
T1 chain: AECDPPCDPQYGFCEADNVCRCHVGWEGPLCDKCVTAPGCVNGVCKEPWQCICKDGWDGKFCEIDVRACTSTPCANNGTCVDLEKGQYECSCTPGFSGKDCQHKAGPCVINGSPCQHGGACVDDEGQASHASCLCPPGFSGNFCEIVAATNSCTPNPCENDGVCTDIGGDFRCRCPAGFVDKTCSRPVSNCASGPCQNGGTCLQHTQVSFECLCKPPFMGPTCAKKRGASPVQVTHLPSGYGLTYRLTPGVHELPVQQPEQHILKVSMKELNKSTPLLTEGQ

binding result: no binding
B1: I18 (antibody, V domains shown)
VH: QVQLKESGPGLVAPSQSLSITCTVSGFSLILYGVHWVRQPPGKGLEWLGLIWAGGSTNYNSALMSRLSISKDNSKSQVFLKMNSLQTDDTAMYYCVRKHSNYLAMDYWGQGTSVTVSS
VL: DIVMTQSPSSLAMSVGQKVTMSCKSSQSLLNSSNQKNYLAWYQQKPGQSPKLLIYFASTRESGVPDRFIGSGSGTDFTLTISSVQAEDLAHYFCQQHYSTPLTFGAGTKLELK
